In patent US20220002426A1 (BIOINVENT INTERNATIONAL, published 2022):

What was measured:
[1] = target: T1, recombinant mouse TNFR2-Fc protein (Sino Biological) (mouse, UniProt P25119 23-258, limits assumed); test: ELISA, coated TNFR2-Fc
T1 construct: bought; also called mTNFR2 protein; mTNFR2; not shown: Fc part of the bought fusion protein; not described
T1 sequence (looked up): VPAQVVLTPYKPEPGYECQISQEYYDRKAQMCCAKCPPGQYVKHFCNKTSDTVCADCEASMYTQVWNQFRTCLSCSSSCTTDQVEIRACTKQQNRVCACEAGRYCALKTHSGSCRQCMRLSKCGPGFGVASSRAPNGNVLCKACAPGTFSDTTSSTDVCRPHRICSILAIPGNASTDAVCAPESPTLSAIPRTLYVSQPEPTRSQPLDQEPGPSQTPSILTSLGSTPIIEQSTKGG
Description: 96-well plates (Lumitrac 600 LIA plate, Greiner) were coated overnight at 4° C. with recombinant human or mouse TNFR2-Fc protein (Sino Biological) at 1 pmol/well. After washing, titrated doses of anti-TNFR2 mAbs from 20 μg/ml to 0.1 ng/ml (133 nM to 1 pM) were allowed to bind for 1 hour. Plates were then washed again, and bound antibodies were detected with an anti-human-F(ab)-HRP secondary antibody (Jackson ImmunoResearch) diluted in 50 ng/ml. Super Signal ELISA Pico (Thermo Scientific) was used as substrate and the plates were analyzed using Tecan Ultra Microplate reader.

[2] = target: T2, mTNFRII (Sinobioologicals Cat No. 50128 M08H) (mouse, UniProt P25119 23-258, limits assumed); test: blocking ELISA, coated mTNFRII, competitor mTNF-α 2 nM
T2 construct: bought
T2 sequence (looked up): T1 sequence (looked up)
Description: 96-well plates were coated with hTNFRII (Sinobioologicals Cat nr10414-H08H) or mTNFRII (Sinobioologicals Cat No. 50128 M08H) at 2.5 pmol/well in ELISA coating buffer (0.1 M sodium carbonate pH 9.5) and incubated overnight at 4° C. After washing in ELISA wash buffer (PBS with 0.05% Tween20), the plates were incubated under slow agitation for 1 h in room temperature with n-CoDeR® mAbs at 10 μg/ml (one-dose ELISA) or 33 nM and subsequent 1:2 dilutions (titration ELISA) in block buffer containing 0.45% fish gelatin. […] Thereafter, plates were washed. For the human ELISAs, Streptavidin-HRP (Jackson Cat No. 016-030-084) diluted 1:2000 in block buffer were added and again incubated for 1 h at room temperature followed by washes first in ELISA buffer and then in Tris buffer (pH 9.8). The substrate (Super Signal ELISA Pico from Thermo Scientific Cat. No. 37069) were thereafter diluted according to the manufacturers instruction, added to the wells and incubated in darkness for 10 min before reading in a Tecan Ultra. […] After washing, anti-Rabbit-HRP diluted 1:10 000 in block buffer was added and again incubated for 1 h at room temperature. Substrate adding and reading were performed as above.

[3] = target: T3, wild type, full length murine TNFR2 (on cells) (mouse, UniProt P25119 23-474); test: FACS, activated mouse CD4+ T cells
T3 construct: whole, on cells; also called mTNFR2; mouse TNFR2
T3 sequence (looked up): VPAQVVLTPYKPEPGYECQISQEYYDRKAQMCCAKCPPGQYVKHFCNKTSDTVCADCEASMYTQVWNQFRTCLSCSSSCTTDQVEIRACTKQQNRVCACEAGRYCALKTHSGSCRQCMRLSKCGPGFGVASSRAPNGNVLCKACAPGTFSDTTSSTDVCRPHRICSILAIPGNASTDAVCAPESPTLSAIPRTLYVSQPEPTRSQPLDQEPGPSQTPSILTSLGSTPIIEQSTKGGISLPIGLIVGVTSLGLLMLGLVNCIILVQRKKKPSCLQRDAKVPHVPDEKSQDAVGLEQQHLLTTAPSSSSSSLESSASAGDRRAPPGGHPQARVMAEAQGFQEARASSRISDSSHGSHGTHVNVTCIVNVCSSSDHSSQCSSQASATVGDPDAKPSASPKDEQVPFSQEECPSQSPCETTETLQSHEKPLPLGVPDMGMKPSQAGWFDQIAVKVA

- EC50 [1]: 0.97 nM
- EC50 [2]: 1.9 nM
- EC50 [3]: 0.072 nM
B1: 003-F10 (antibody, V domains shown)
VH: EVQLLESGGGLVQPGGSLRLSCAASGFTFSDAWMTWVRQAPGKGLEWVSDLSDSGGSTYYADSVKGRFTISRDNSKNTLYLQMNSLRAEDTAVYYCGRLAAGGPVDYWGQGTLVTVSS
VL: QSVLTQPPSASGTPGQRVTISCTGSSSNIGAGYDVHWYQQLPGTAPKLLIYSNNQRPSGVPDRFSGSKSGTSASLAISGLRSEDEADYYCSVWDDSLNSWVFGGGTKLTVLG
notes: also called 3-F10 (mouse)
